# Columns and labels:
# Test in all cases: purified protein, by the assay type
# [1] = substrate: O=C(O)CP(=O)(O)O; conditions: other: PA as slow substrate
# [2] = substrate: O=C(O)c1cc(=O)[nH]c(=O)n1[C@@H]1O[C@H](COP(=O)(O)O)[C@@H](O)[C@H]1O; format: biochemical, human; conditions: 25° C., pH 8.0
# Description: (§1) Expression and Purification of PfOPRT and HsOPRT. The pDEST14 vectors encoding the two OPRT genes were transformed into BL21-AI E. coli competent cells and grown in LB+Amp (100 μg mL^−1) at 37° C. to an OD600 of 0.6. Protein expression was induced by adding 0.02% L-arabinose with overnight growth at 37° C. Cells were harvested by centrifugation at 4° C., weighted and resuspended in lysis buffer (20 mM Tris-HCl, 500 mM NaCl and 5 mM Imidazole, pH=7.9, 3 mL/gram cell pellet). Lysozyme (100 μg mL^−1), DNase I (10 μg mL^−1) and protease inhibitor (1 tablet/8 grams of cells) (Roche Applied Science, Indianapolis, Ind.) were added to the solution. Following disruption in a French Press, cell lysate was centrifuged at 30,000 g for […] at 4° C. […] The 6×His-OPRTs were eluted with a gradient of imidazole (20 mM ˜500 mM). The OPRT bands were visualized on SDS-PAGE gels and fractions with high purity were pooled, made to 10% glycerol and 10 mM β-ME (final concentration), concentrated and dialyzed overnight at 4° C. to remove imidazole. His-tags were removed during dialysis by the presence of thrombin (1 unit/0.1 mg). His-tag free OPRTs were purified by Superdex 200 26/60 Gel filtration column, concentrated and stored at −80° C. […] Reactions were monitored by the absorbance increase at 295 nm to give an extinction coefficient of 3.67 mM^−1 cm^−1.
# [3] = substrate: O=C(O)CP(=O)(O)O; format: biochemical, Plasmodium falciparum; conditions: other: PA as slow substrate
# Description: as §1
# [4] = substrate: O=C(O)c1cc(=O)[nH]c(=O)n1[C@@H]1O[C@H](COP(=O)(O)O)[C@@H](O)[C@H]1O; format: biochemical, Plasmodium falciparum; conditions: 25° C., pH 8.0, 25.0 °C
# Description: as §1
# [5] = other: OMP with PA (20 mM) as substrate
# [6] = other: OMP with PPi (1 mM) as substrate
protein,measurement,setting,value
"HsOPRT (Homo sapiens) (protein, This HsUMPase truncation construct only expresses its HsOPRT domain; His6 (thrombin-cleavable) (N, cleaved yes); made in house; host or cells: E. coli BL21-AI) MAVARAALGPLVTGLYDVQAFKFGDFVLKSGLSSPIYIDLRGIVSRPRLLSQVADILFQTAQNAGISFDTVCGVPYTALPLATVICSTNQIPMLIRRKETKDYGTKRLVEGTINPGETCLIIEDVVTSGSSVLETVEVLQKEGLKVTDAIVLLDREQGGKDKLQAHGIRLHSVCTLSKMLEILEQQKKVDAETVGRVKRFIQENVFVAANHNGSPLSIKEAPKELSFGARAELPRIHPVASKLLR",Km,[1],3840 µM
same,kcat,[1],0.017 s⁻¹
same,Km,[2]; [5],2.14 ± 0.61 µM
same,kcat,[2]; [5],0.017 ± 0.002 s⁻¹
same,kcat/Km,[2]; [5],7900 M⁻¹ s⁻¹
same,Km,[2]; [6],1.55 ± 0.61 µM
same,kcat,[2]; [6],0.10 ± 0.01 s⁻¹
same,kcat/Km,[2]; [6],65000 M⁻¹ s⁻¹
"PfOPRT (Plasmodium falciparum 3D7) (protein, His6 (thrombin-cleavable) (N, cleaved yes); made in house; host or cells: E. coli BL21-AI) MTTIKENEFLCDEEIYKSFVHLKDKICEERKKKELVNNNIDNVNFNDDDDNNYDDDGNSYSSYIKEMKKLLKVVLLKYKALKFGEFILKSKRKSNYFFSSGVLNNIVSSNIICFLLSELILKNKLSFDYLLGASYKGIPMVSLTSHFLFESKKYSNIFYLYDRKEKKEYGDKNVIVGNLDDDDKDILNLKKKTKNNQDEEKKNIIIIDDVFTCGTALTEILAKLKTYEHLKVVAFIVLLNRNEYEINENNQKIYFKDIFEKRVGIPLYSILSYKDDIQSMI",Km,[3],1590 µM
same,kcat,[3],0.023 s⁻¹
same,Km,[4]; [5],2.90 ± 1.09 µM
same,kcat,[4]; [5],0.014 ± 0.002 s⁻¹
same,kcat/Km,[4]; [5],4800 M⁻¹ s⁻¹
same,Km,[4]; [6],3.73 ± 1.36 µM
same,kcat,[4]; [6],1.96 ± 0.29 s⁻¹
same,kcat/Km,[4]; [6],530000 M⁻¹ s⁻¹

# Source: patent publication US20110301104A1, “Transition state structure of orotate phosphoribosyl transferases and uses thereof” (priority 2008, published 2011)
